# Data taken from the Immune Epitope Database (IEDB).
# Tests used:
# Test in all cases: IEDB peptide-MHC binding, purified MHC/direct/fluorescence; filed as Kd, often an IC50 or EC50 that approximates it; ≥ and ≤ were set here for values at or beyond the usual limits of such assays
# HLA-B*58:01 = details: source organism: Salmonella enterica
# HLA-A*02:10 = details: source organism: Salmonella enterica subsp. enterica serovar Typhimurium str. LT2
# HLA-B*48:01 = details: source organism: Salmonella enterica
# HLA-B*27:05 = details: source organism: Salmonella enterica
# HLA-B*40:01 = details: source organism: Salmonella enterica
# HLA-B*39:01 = details: source organism: Salmonella enterica subsp. enterica serovar Typhimurium str. LT2
# HLA-B*57:01 = details: source organism: Salmonella enterica
# HLA-B*46:01 = details: source organism: Salmonella enterica
# HLA-A*26:02 = details: source organism: Salmonella enterica subsp. enterica serovar Typhimurium str. LT2
# HLA-A*24:03 = details: source organism: Salmonella enterica subsp. enterica serovar Typhimurium str. LT2
sequence,measurement,setting,value
FPASHMATY,Kd,HLA-B*58:01,≥ 20 µM
same,Kd,HLA-A*02:10,≥ 20 µM
same,Kd,HLA-B*48:01,≥ 20 µM
same,Kd,HLA-B*27:05,≥ 20 µM
same,Kd,HLA-B*40:01,≥ 20 µM
same,Kd,HLA-B*39:01,≥ 20 µM
same,Kd,HLA-B*57:01,≥ 20 µM
same,Kd,HLA-B*46:01,9 µM
same,Kd,HLA-A*26:02,≤ 0.001 µM
same,Kd,HLA-A*24:03,≥ 20 µM
